Data from patent US20090082410A1.

Target: angiotensin II type 1A receptor
Test: cell-based or functional assay

arrestinGFP translocation response (Fgrains, INCell Analyzer), U2OS cells, 1:4 dilution of GRK2-C20 baculovirus, no ligand: 305 Fgrains
arrestinGFP translocation response (Fgrains, INCell Analyzer), U2OS cells, 1:256 dilution of GRK2-C20 baculovirus, no ligand: 77 Fgrains
arrestinGFP translocation response (Fgrains, INCell Analyzer), U2OS cells, no added GRK2-C20, no ligand: 18 Fgrains
Substance: arrestin-GFP
